This experiment deals with ubiquitin-methionine-dihydrofolate reductase (mouse) (UniProt P00375).

Regarding “Yuh1 ubiquitin-specific protease (from UniProt P35127) (enzyme)”, the deubiquitination in vitro (extract of E. coli expressing Yuh1), share of the fusion deubiquitinated was below 50%.

The values above are taken from patent US5683904.
